One test addresses T1, Damb (DAMB) (Drosophila melanogaster, UniProt Q24563).
T1 sequence (Q24563 1-539): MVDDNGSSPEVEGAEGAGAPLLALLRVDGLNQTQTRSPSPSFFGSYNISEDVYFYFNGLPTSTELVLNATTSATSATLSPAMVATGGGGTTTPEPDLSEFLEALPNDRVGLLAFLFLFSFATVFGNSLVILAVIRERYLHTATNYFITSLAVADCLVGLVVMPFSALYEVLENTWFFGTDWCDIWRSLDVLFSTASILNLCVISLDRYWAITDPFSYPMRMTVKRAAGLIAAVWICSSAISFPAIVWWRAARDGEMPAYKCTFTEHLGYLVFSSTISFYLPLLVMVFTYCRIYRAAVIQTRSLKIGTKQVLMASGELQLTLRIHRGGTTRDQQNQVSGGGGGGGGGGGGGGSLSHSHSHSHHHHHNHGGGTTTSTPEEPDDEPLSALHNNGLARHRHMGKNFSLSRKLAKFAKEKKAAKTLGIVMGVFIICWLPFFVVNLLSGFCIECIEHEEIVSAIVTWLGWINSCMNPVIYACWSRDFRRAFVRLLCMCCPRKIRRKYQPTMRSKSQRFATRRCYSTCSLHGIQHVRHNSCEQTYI
Kind of test: real-time BRET G protein activation assay, HEK293T/[…] cells. In kind it is cell-based. On the technique in general: In BRET a luciferase serves as donor, and the signal depends on an acceptor being close.

The target of test [1] is Drosophila Gαq isoform G (Drosophila).
For test [2], the target named is Drosophila Gαs isoform A (Drosophila).

For `NCCc1ccc(O)c(O)c1` [dopamine], the EC50 (commonly the midpoint of the concentration-response curve) on Damb (DAMB) amounted to 56.7 ± 7.7 nM.

B1: Damb (DopAmine receptor expressed in Mushroom Bodies) (receptor)
chain: T1 sequence (Q24563 1-539)
With B1, the results for the rate of G protein activation (BRET, 100 μM DA, HEK293T/17 cells) in test [1] and in test [2] were 2.71 s⁻¹ and 0.46 s⁻¹, respectively.

These data come from PMC6168074 (Cell reports, 2017).
